US20140154243A1 (Amgen, published 2014)

B1: antibody 2.4.4 (antibody, human IgG2, kappa, V domains shown)
VH: QVQLKESGPGLVKPSQTLSLTCTVSGGSISSGVYYWSWIRQHPGKGLEWIGYFYYSGNTYHNPSLKSRVTISVDTSKNQFSLKLSSVTAADTAVYYCARDRSGYDHPDAFDIWGQGTMVTVSS
VL: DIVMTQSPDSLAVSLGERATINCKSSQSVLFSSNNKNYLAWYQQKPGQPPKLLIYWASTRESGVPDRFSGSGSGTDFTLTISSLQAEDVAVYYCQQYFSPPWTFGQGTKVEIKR
notes: also called FITC-labeled antibody 2.4.4
B2: antibody 2.12.1 (antibody, human IgG2, kappa, V domains shown)
VH: QVQLQESGPGLVKPSETLSLTCTVSGGSISIYYWSWIRQPPGKGLEWIGYVYYSGSTNYNPSLKSRVTISVDTSKNQFSLKLNSVTAADTAVYYCARGGYDFWSGYFDYWGQGTLVTVSS
VL: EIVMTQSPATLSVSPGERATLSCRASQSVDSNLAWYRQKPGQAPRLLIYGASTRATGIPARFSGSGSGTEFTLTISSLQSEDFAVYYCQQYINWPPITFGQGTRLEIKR

What was measured:
[1] = biological target: T1, human hepatocyte growth factor (HGF) (human, UniProt P14210 32-728); assay: cell-based or functional assay
T1 sequence (P14210 32-728 limits assumed): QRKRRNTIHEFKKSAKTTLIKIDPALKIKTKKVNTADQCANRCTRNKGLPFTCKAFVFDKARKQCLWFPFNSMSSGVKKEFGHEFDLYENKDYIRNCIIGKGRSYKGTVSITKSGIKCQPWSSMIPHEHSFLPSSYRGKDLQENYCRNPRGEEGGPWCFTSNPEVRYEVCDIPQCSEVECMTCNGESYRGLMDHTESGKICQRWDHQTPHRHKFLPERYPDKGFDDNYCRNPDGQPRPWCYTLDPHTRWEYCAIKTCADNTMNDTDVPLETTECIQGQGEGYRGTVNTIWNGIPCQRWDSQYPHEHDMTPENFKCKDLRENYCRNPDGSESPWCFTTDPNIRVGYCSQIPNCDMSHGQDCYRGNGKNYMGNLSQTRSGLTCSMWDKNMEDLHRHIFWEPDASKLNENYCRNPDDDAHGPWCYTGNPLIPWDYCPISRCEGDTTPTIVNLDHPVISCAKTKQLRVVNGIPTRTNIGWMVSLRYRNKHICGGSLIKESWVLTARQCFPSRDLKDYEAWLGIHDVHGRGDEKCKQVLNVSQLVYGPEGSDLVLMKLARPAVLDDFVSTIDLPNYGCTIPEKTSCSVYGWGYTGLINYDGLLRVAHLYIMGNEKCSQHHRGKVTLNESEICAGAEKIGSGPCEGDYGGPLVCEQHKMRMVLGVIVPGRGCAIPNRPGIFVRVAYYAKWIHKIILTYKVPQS

[2] = biological target: T1, human hepatocyte growth factor (HGF); assay: BIAcore 3000, equilibrium/solution method: antibody (0.01-50 nM) incubated with human HGF (0.05 nM and 1 nM), free HGF measured on a chip carrying the same antibody
Description: That method was performed with a BIAcore®3000 (Biacore, Inc., Piscataway, N.J.) using PBS with 0.005% P20 surfactant (BIAcore, Inc. Piscataway, N.J.) as running buffer. The four antibodies to HGF were separately immobilized to research grade CM5 sensor chips (Biacore, Inc. Piscataway, N.J.) via primary amine groups using an Amine Coupling Kit (Biacore, Inc. Piscataway, N.J.) following the manufacturer's instructions.
In separate assays, each of the four antibodies to HGF, over a range of concentrations (from 0.01 nM to 50 nM) was separately incubated with each of two different concentrations (0.05 nM and 1 nM) of human HGF in PBS with 0.005% P-20 and 0.1 mg/mL BSA at room temperature for at least six hours. Each of those samples was then injected over a surface of a CM5 sensor chip onto which the same antibody to HGF had been immobilized. The binding signal obtained was proportional to the free HGF in solution. The dissociation equilibrium constant (KD) was obtained from nonlinear regression analysis of the competition curves using a dual-curve one-site homogeneous binding model (KinExA software, Sapidyne Instruments Inc., Boise Id.).

[3] = biological target: T1, human hepatocyte growth factor (HGF); assay: BIAcore 3000, kinetic method: antibody captured on immobilized Protein G, human HGF (0-100 nM) injected
From the text: The running buffer for those analyses was PBS with 0.005% P20 surfactant (BIAcore, Inc. Piscataway, N.J.). Recombinant Protein G (Pierce, Rockford, Ill.) was immobilized to a research grade CM5 sensor chip (Biacore, Inc. Piscataway, N.J.) via primary amine groups using the Amine Coupling Kit (Biacore, Inc. Piscataway, N.J.), according to the manufacturer's instructions.
In six separate samples, about 200 resonance units (RU) of each of the six antibodies to HGF was separately attached to immobilized Protein G following the manufacturer's instructions. Samples comprising various concentrations (0-100 nM) of human HGF were injected over the bound antibody surface at a flow rate of 50 μl/min for 3 minutes. Antibody binding kinetic parameters including kₐ (association rate constant), kd (dissociation rate constant), and KD (dissociation equilibrium constant) were determined using the BIA evaluation 3.1 computer program (BIAcore, Inc. Piscataway, N.J.). Lower dissociation equilibrium constants indicate greater affinity of the antibody for HGF.

[4] = biological target: human HGF-avidin fusion protein with the point mutation hHGFG555E (chicken; human, UniProt P02701 25-152; P14210 32-728, limits assumed); assay: avidin fusion protein captured on biotin-coated beads, PE anti-human F(ab')2, FACS
Description: (§1) These constructs were expressed and subjected to binding analysis as described in Examples 8C and 8D. […] The resulting bead-protein complexes were labeled by adding FITC labeled anti-avidin antibody (Vector Lab, Burlingame, Calif., Cat. # SP-2040). The presence of antibodies to HGF was determined by adding phycoerythrin (PE) labeled goat anti-human F(ab′)2 antibody (Southern Biotech Associates, Inc, Birmingham, Ala., Cat #2043-09). Those samples were then subjected to Fluorescence Activated Cell Sorter (FACS) analysis. Bead complexes labeled by FITC (which indicated the presence of avidin) and/or PE (which indicated the presence of antibody to HGF) were detected on a Becton Dickinson Bioscience FACScan (BD, Franklin Lakes, N.J.). In some cases, after expression normalization using FITC, single-color FACS analysis was performed following antibody binding by the PE label. This method increased the sensitivity of the assay and aided the measurement of binding with constructs that were not expressed at very high levels.

[5] = biological target: T2, human HGF-avidin fusion protein with a two amino acid insertion (mouse amino acids 540N and 541K) (chicken; human, UniProt P02701 25-152; P14210 32-728, limits assumed); assay: as above
T2 construct: also called hHGF DK insertion
T2 sequence (P02701 other isoform, or with tags, fused parts or gaps limits assumed): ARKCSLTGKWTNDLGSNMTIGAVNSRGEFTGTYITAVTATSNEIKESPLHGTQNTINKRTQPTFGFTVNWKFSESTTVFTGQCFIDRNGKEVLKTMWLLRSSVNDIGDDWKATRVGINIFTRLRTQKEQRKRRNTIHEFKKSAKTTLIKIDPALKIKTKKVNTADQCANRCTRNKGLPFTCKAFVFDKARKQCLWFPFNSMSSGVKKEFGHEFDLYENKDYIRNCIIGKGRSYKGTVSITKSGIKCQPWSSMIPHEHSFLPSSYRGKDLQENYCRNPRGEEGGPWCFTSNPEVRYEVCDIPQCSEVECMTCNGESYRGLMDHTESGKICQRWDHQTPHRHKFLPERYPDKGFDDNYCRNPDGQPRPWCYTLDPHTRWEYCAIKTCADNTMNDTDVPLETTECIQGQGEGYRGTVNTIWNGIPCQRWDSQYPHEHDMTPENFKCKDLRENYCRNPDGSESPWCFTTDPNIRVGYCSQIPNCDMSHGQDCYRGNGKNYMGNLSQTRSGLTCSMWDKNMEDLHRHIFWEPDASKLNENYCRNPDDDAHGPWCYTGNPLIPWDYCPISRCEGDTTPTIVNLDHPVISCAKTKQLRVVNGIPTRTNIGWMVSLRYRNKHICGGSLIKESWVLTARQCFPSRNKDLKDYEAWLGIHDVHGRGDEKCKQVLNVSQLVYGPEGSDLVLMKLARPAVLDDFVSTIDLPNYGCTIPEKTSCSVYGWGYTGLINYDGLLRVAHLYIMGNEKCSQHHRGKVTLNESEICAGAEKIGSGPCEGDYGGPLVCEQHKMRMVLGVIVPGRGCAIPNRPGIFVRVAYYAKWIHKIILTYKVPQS
Description: as §1

[6] = biological target: human HGF-avidin fusion protein with the point mutation hHGFR647Q (chicken; human, UniProt P02701 25-152; P14210 32-728, limits assumed); assay: as above
Sequence of human HGF-avidin fusion protein with the point mutation hHGFR647Q (P02701 other isoform, or with tags, fused parts or gaps limits assumed): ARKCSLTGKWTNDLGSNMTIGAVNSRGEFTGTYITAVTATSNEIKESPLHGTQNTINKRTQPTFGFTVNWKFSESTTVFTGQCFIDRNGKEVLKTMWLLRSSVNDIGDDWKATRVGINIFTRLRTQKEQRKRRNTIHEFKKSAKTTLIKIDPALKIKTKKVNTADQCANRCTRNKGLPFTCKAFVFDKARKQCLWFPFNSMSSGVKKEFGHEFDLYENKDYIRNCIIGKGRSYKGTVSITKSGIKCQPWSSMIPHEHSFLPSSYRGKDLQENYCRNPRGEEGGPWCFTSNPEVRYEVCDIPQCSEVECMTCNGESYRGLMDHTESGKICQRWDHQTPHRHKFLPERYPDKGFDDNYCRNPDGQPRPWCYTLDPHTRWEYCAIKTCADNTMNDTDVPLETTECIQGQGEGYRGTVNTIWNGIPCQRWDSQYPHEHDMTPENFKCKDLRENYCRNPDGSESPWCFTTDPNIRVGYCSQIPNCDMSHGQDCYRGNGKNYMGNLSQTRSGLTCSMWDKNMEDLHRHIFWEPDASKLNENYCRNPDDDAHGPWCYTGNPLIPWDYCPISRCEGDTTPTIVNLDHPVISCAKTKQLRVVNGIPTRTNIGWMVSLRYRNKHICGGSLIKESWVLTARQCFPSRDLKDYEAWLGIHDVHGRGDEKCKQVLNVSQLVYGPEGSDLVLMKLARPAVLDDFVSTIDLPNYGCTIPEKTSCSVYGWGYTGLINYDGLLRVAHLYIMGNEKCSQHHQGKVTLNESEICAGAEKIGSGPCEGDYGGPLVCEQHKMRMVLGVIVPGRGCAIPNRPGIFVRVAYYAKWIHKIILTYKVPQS
Description: as §1

[7] = biological target: human HGF-avidin fusion protein with the point mutation hHGFN601S (chicken; human, UniProt P02701 25-152; P14210 32-728, limits assumed); assay: as above
Sequence of human HGF-avidin fusion protein with the point mutation hHGFN601S (P02701 other isoform, or with tags, fused parts or gaps limits assumed): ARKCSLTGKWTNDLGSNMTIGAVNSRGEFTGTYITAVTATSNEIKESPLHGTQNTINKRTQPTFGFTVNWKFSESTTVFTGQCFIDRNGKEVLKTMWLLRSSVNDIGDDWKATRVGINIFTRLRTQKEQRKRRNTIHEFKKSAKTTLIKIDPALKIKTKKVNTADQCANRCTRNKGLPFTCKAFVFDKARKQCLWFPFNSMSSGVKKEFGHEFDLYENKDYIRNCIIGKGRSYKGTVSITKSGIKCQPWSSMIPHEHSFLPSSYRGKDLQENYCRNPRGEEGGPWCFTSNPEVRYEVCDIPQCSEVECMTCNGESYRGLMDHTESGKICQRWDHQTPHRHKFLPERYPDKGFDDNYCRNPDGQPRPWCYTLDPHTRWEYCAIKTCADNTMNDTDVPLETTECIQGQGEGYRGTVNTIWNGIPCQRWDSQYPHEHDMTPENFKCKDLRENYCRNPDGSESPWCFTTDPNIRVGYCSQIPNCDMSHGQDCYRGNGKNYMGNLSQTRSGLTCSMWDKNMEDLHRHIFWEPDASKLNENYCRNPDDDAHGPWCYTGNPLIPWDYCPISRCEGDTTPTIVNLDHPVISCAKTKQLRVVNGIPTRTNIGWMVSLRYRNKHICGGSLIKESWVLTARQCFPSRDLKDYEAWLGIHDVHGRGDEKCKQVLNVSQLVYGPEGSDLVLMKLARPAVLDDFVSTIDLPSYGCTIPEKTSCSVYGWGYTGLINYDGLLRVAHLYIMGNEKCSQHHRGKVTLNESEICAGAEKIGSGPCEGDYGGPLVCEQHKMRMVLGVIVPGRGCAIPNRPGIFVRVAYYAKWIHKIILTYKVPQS
Description: as §1

[8] = biological target: human HGF-avidin fusion protein with the point mutation hHGFD592N (chicken; human, UniProt P02701 25-152; P14210 32-728, limits assumed); assay: as above
Sequence of human HGF-avidin fusion protein with the point mutation hHGFD592N (P02701 other isoform, or with tags, fused parts or gaps limits assumed): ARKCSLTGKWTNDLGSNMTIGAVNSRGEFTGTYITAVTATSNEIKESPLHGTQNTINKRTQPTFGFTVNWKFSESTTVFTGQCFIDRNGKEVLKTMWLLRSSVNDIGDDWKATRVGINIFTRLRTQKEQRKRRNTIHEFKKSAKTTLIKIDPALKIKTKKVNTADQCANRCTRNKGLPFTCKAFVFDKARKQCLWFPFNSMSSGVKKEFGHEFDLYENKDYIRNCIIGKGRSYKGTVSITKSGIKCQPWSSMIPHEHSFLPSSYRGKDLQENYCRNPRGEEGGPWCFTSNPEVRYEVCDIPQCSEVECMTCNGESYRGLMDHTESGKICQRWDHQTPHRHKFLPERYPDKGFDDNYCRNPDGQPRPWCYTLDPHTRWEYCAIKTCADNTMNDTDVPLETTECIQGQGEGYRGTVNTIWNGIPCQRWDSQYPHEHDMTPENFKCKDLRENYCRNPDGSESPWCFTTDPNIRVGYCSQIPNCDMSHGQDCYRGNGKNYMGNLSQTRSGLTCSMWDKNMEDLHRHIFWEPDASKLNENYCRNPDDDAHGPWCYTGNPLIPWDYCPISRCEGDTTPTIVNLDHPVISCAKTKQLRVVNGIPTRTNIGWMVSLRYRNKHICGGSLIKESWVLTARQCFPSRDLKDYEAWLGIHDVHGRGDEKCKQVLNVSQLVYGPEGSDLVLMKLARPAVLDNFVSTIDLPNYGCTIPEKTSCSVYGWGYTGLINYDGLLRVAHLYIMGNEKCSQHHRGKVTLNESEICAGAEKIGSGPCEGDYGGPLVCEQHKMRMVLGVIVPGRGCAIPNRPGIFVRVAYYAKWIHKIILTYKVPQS
Description: as §1

[9] = biological target: human HGF-avidin fusion protein with the point mutation hHGFC561R (chicken; human, UniProt P02701 25-152; P14210 32-728, limits assumed); assay: as above
Sequence of human HGF-avidin fusion protein with the point mutation hHGFC561R (P02701 other isoform, or with tags, fused parts or gaps limits assumed): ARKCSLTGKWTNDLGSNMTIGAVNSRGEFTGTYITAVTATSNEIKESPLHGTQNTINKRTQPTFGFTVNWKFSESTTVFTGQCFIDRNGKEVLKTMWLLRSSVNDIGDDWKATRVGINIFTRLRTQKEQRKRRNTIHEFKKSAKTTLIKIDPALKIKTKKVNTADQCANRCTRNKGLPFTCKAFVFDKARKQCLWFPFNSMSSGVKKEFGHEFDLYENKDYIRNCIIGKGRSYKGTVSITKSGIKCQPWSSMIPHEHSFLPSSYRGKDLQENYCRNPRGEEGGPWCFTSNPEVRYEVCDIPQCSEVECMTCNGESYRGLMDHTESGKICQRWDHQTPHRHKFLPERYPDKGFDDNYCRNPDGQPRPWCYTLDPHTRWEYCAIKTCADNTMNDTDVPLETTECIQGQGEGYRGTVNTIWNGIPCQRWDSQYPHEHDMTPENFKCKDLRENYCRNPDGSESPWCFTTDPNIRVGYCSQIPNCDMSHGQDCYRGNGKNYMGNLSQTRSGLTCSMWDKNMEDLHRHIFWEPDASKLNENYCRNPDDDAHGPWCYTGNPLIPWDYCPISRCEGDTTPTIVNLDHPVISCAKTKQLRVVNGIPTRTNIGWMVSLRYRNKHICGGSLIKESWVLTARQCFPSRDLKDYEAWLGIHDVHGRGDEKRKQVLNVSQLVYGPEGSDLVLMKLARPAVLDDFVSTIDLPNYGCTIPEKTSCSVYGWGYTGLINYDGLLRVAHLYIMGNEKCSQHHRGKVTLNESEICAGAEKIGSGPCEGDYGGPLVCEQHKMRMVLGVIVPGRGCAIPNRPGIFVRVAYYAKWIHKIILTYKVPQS
Description: as §1

Binder	IC50, inhibition of growth/survival of U-87 MG cells [1] [nM]	Kd [2] [nM]	Kd [3] [nM]	koff [3] [s⁻¹]	kon [3] [M⁻¹ s⁻¹]	binding result [4]	binding result [5]	binding result [6]	binding result [7]	binding result [8]	binding result [9]
B1	< 100	< 0.01	~0.099	2.7e-05	270000	binds	no binding	binds	binds	binds	no binding
B2	< 100	0.054	~0.22	2.8e-05	130000	no binding	no binding	binds	binds	binds	no binding
